Article PMC4488245
pKd: −log10 of the molar value. Each block holds one substance with its values, some of them ahead of it.

Legend:
[1] = system: TcL5 (ribosomal protein L5) (Trypanosoma cruzi CL Brener); assay: filter binding; conditions: 10 mM Tris pH 7.4, 1 mM EDTA, 100 mM NaCl, 0.1% NP40, 100 ug/mL BSA; room temperature, 30 min; 0.5 fmol RNA in 50 ul, 0-500 nM protein
[2] = system: TcP37/NRBD (Trypanosoma cruzi CL Brener); assay: filter binding; conditions: 10 mM Tris pH 7.4, 1 mM EDTA, 100 mM NaCl, 0.1% NP40, 100 ug/mL BSA; room temperature, 30 min; 0.5 fmol RNA in 50 ul, 0-500 nM protein
[3] = biological target: TcP37/NRBD (T. cruzi (endogenous in CL Brener epimastigotes)); assay: co-IP; anti-P34/P37 antibody cross-linked to Protein A Dynabeads, 1 mg epimastigote whole cell extract, 4°C overnight, washed in PBS-T; pellet and supernatant blotted with anti-TcL5 peptide antibody; extracts with or without RNase A (20 U/ml, 1 hour, 37°C)
[4] = biological target: rTcL5 (T. cruzi); assay: co-IP; 500 ng rTcP37/NRBD and 500 ng rTcL5, with or without 500 ng in vitro transcribed Tc 5S rRNA, applied to TcL5 antibody cross-linked Dynabeads; eluate and supernatant blotted with P34/P37 antibodies

Substance: Tc 5S rRNA
pKd [1]: 7.96 | pKd [2]: 7.20

decrease of the association after RNase A treatment of the extract [3]: 74%
Substance: TcL5 (natural protein)

increase of the association in the presence of 5S rRNA [4]: 62%
Substance: rTcP37/NRBD (natural protein)
